As usually defined, the Kd is a measure of binding affinity in units of concentration. Lower therefore signals higher affinity.

This note sets out measurements from article PMC7721721.

The data set has as its system anti-digoxigenin IgG antibody (sheep). Nature of the data set: fluorescence (FRET) titration. The conditions noted are these: 5'-digoxigenin; 25 mM HEPES pH 7.2, 0.1 M NaCl, 37 C (FRET titrations, templated reactions); native PAGE binding buffer not given in the material.

As for “GTCACCGCAAAATAAGATTTTTTTTTTGAGTCGAATTCGTACC [DIG-Q-strand#2 (DIG-conjugated templating strand)]”, the Kd stood at 3.6 nM. That is a single-digit nanomolar value.
